Results on two substances are retold here after patent publication US20130212721.

Where a chain is given by its changes, count along the chain named.

In data set [1] the test system is T1, human FEAT D274A/D288A mutant.
T1 sequence: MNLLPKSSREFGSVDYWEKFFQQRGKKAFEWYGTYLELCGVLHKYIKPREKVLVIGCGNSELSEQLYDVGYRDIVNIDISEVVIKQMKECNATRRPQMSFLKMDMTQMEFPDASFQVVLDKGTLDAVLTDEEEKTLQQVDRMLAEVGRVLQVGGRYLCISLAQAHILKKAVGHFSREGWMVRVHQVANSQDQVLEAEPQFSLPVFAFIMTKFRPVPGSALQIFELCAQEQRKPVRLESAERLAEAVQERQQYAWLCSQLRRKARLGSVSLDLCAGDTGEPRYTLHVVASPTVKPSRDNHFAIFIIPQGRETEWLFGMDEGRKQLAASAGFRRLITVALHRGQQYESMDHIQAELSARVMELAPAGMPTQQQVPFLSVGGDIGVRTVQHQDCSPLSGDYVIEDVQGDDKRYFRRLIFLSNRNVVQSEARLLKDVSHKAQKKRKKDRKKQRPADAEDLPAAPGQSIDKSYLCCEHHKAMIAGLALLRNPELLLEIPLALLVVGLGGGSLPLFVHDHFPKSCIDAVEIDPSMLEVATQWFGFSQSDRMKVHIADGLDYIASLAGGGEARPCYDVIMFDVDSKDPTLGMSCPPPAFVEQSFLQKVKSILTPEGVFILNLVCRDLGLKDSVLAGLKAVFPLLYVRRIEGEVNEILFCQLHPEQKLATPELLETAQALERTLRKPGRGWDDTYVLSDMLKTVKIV

In data set [2] the test system is T2, human FEAT protein (faint expression in normal tissues, aberrant overexpression in tumors).
T2 sequence: T1 sequence with A274D, A288D

As to His-tagged recombinant caspase-3, in data set [1], the “caspase-3 cleavage of FEAT with Asp-to-Ala mutations in the cleavage sites” value is “are resistant to caspase-3 cleavage”. The “cleavage of in vitro transcribed/translated [35S]-FEAT (SDS-PAGE, autoradiography)” value in data set [2] is “FEAT transcribed/translated in vitro was cleaved by caspase-3, but not by caspase-6”.

Turning to His-tagged recombinant caspase-6, in data set [2], the “cleavage of in vitro transcribed/translated [35S]-FEAT (SDS-PAGE, autoradiography)” value is on record as “FEAT transcribed/translated in vitro was cleaved by caspase-3, but not by caspase-6”.
